Test results taken from US20180030144A1 (INNATE PHARMA, published 2018).

Tests used:
[1] = target: T1, human CD73 expressed at the cell surface (human, UniProt P21589 27-549); assay: flow cytometry on MDA-MB-231 cells pre-incubated with 200 µM APCP
T1 construct: GPI-anchored dimer on cells; also called huCD73; cellular CD73
T1 sequence: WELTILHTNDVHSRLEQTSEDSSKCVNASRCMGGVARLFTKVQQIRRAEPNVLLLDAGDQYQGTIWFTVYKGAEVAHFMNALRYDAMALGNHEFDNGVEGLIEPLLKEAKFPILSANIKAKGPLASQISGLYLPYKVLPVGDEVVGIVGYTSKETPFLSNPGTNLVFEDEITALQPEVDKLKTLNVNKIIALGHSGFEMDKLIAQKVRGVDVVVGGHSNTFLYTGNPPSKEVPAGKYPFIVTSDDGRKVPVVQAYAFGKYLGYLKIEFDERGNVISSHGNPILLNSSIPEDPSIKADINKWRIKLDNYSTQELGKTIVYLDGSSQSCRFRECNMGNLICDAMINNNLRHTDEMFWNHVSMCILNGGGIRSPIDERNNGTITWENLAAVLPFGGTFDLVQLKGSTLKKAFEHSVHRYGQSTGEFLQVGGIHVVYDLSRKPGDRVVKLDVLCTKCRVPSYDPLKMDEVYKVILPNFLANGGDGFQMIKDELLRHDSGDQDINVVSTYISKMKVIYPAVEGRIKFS
Protocol: MDA-MB-231 cells are available from ATCC (reference HTB-26). 10⁵ cells resuspended in PBS/0.2% BSA/0.02% NaN3 (named “staining buffer”) are distributed into round bottom 96W-microplates. Dose-range of anti-CD73 antibodies was added to the plates and cells are incubated for 45 min at 4° C. Cells were washed three times in staining buffer by spinning plates at 400 g for 3 min at 4° C. PE-coupled goat anti-mouse or goat anti-human IgG Fc fragment secondary antibodies (Beckman Coulter) diluted in staining buffer were added to the cells and plates are incubated for 30 additional minutes at 4° C. Cells were washed three times as described above and analyzed on an Accury C6 flow cytometer equipped with an HTFC plate reader.
Cells were pre-incubated at 37° C. for 30 minutes in the presence or not of 200 μM adenosine 5′-(α,β-methylene)diphosphate (APCP), followed by addition of antibodies. APCP is an analog of ADP and binds irreversibly to the active site of CD73. When bound by APCP, CD73 changes conformation from an “open” conformation to a “closed” conformation. mAbs 11E1, 8C7, 3C12 and 6E1 bound MDA-MB-231 cells with good affinity both in the presence and absence of APCP. In the presence of APCP, the EC50 was similar to that observed in the absence of APCP. The plateau for maximal binding of 11E1, 8C7, 3C12 and 6E1 was higher in the absence of APCP than in the presence of APCP, while the inverse was true for AD2.

[2] = target: T2, cynomolgus CD73 expressed on a recombinant host cell line (cynomolgus); assay: flow cytometry titration on a cynomolgus-CD73-expressing recombinant host cell line, median of fluorescence
T2 construct: whole, on cells; also called cynoCD73

[3] = target: T1, human CD73 expressed at the cell surface; assay: flow cytometry titration on HEK293T cells transfected with wild type human CD73, mean of fluorescence

Binder	EC50 [1] [µg/mL]	EC50 (read off the curve) [2] [µg/mL]	EC50 (read off the curve) [3] [µg/mL]
antibody 11E1 (antibody, human IgG1, V domains shown, Produced as chimeric human IgG1 with heavy chain N297Q (Kabat EU numbering); also called 1E11) VH: EIQLQQSGPELVKPGASVKVSCKASGYAFTSYNMYWVKQSHGKSLEWIGYIDPYNGGTSYNQKFKGKATLTVDKSSSTAYMHLNSLTSEDSAVYYCARGYGNYKAWFAYWGQGTLVTVSA VL: DAVMTQTPKFLLVSAGDRVTITCKASQSVTNDVAWYQQKPGQSPKLLIYYASNRYTGVPDRFTGSGYGTDFTFTISTVQAEDLAVYFCQQDYSSLTFGAGTKLELK	0.0375	~0.4	–
antibody 3C12 (antibody, human IgG1, V domains shown, Produced as chimeric human IgG1 with heavy chain N297Q (Kabat EU numbering); RTVAAP)) VH: QIQLQQSGPELVKPGASVKVSCKASGYAFASYNMNWVKQSHGKSLDWIGYIDPYNGGSSYNLTFKGKATLTVDKSSTTAYMHLNSLTSEDSAVYYCARGYGNYKAWFAYWGQGTLVTVSA VL: DVVMTQTPKFLLVSAGDRVTITCKASQSVSNDVAWYQQKPGQSPKLLIYYASTRYTGVPDRFTGSGYGTDFTFTISTVQAEDLAVYFCQQDYSSLTFGAGTKLELKR	0.0431	~0.4	~0.2
antibody 6E1 (antibody, human IgG1, V domains shown, Produced as chimeric human IgG1 with heavy chain N297Q (Kabat EU numbering)) VH: EFQLQQSGPELVKPGASVKVSCKASGYAFTSYNMYWVKQSHGKRLEWIGYIDPYNGGSSYNQKFKGKATLTVDKSSSTAYMHLNNLTSEDSAVYYCARGYNNYKAWFAYWGQGTLVTVSA VL: SIVMTQTPKFLLVSAGDRVTITCKASQSVTNDVAWYQQKPGQSPKLLIYYASNRYTGVPDRFTGSGYGTDFTFTISTMQAEDLAVYFCQQDYSSLTFGAGTKLELK	0.0395	~0.4	–
